Source: patent US20190127480A1 (Regeneron, published 2019)

Experiments:
[1] = target: T1, Soluble heterodimeric CD3 protein (hCD3-epsilon/hCD3-delta) with either a human Fc tag (hFcΔAdp/hFc) or a … (human, UniProt P07766 23-126; P04234 22-105); assay: SPR Biacore 25C antigen-capture, 1-arm
T1 construct: also called hCD3ε/δ; not shown: Fc tag: human (hFcΔAdp/hFc)
Description: In the antigen-capture format, heterodimeric CD3 protein was captured using a rabbit anti-mouse Fc or mouse anti-human Fc and the respective antibodies were injected over the captured antigen.
(§1) Kinetic association (kₐ) and dissociation (kd) rate constants were determined by processing and fitting the data to a 1:1 binding model using Scrubber 2.0 curve fitting software. Binding dissociation equilibrium constants (KD) and dissociative half-lives (t₁₁₂) were calculated from the kinetic rate constants as: KD (M)=kd/kₐ; and t_{1/2} (min)=(ln 2/(60*kd). NT=not tested; NB=no binding observed.

[2] = target: T1, Soluble heterodimeric CD3 protein …; assay: SPR Biacore 25C antibody-capture, 1-arm
Description: (§2) Soluble heterodimeric CD3 protein (hCD3-epsilon/hCD3-delta; SEQ ID NOs:1652/1653) with either a human Fc tag (hFcΔAdp/hFc; SEQ ID NOs:1683/1684) or a mouse Fc tag (mFcΔAdp/mFc; SEQ ID NOs:1685/1686) was injected over the antibody captured surface and the binding response was recorded. Heterodimeric CD3 protein was purified using the method described in Davis et al. (US2010/0331527).
as §1

[3] = target: T1, Soluble heterodimeric CD3 protein …; assay: SPR Biacore 25C antigen-capture
Method in brief: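 Rate constants fitted to a 1:1 model, giving KD as kd/ka and dissociative half-life as ln2/(60·kd) minutes. Antibodies flowed over CD3ε/δ heterodimer captured on anti-human or anti-mouse Fc surfaces, run on a Biacore T200 at 25 °C.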

[4] = target: T1, Soluble heterodimeric CD3 protein …; assay: SPR Biacore 25C antibody-capture
Description: Measurements were conducted on a T200 Biacore™ instrument.
as §2, §1

T1 sequence (P07766 23-126 limits assumed, stated change not applied, chain 1 of 2): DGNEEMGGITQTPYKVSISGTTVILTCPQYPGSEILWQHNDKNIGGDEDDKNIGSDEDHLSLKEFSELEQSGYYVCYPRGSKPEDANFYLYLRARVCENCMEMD
T1 sequence (P04234 22-105 limits assumed, stated change not applied, chain 2 of 2): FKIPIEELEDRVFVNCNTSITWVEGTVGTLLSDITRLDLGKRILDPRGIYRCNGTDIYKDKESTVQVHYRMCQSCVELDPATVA

Row | Kd [1] [nM] | T½ [1] [min] | koff [1] [s⁻¹] | kon [1] [M⁻¹ s⁻¹] | Kd [2] [nM] | T½ [2] [min] | koff [2] [s⁻¹] | kon [2] [M⁻¹ s⁻¹] | Kd [3] [nM] | T½ [3] [min] | koff [3] [s⁻¹] | kon [3] [M⁻¹ s⁻¹] | Kd [4] [nM] | T½ [4] [min] | koff [4] [s⁻¹] | kon [4] [M⁻¹ s⁻¹] | binding result [2] | Binder
1 | 2.49 | 25 | 0.000461 | 185000 | 41.3 | 26 | 0.000443 | 10700 |  |  |  |  |  |  |  |  |  | H1H7196P (monovalent 1-arm) (antibody, human IgG1, V domains shown, Monovalent 1-arm: second Fab removed, only the Fc portion (CH2-CH3) expressed; human IgG1 Fc; tied by numerical identifier; also called H1H7196B) VH: EVQLVESGGGMVQPGRSLRLSCAASGFPFNDYTMHWVRQVPGRGLEWVSDISWNSGSKGYADSVKGRFIISRDNAKNSLYLQMNSLRVEDTALYYCVKDGSGYGRFHYYAMDVWGQGTTVTVSS VL: not shown
2 |  |  |  |  |  |  |  |  | 3.38 | 10 | 0.00112 | 331000 | 246 | 7 | 0.00162 | 6570 |  | H1H5801B (antibody, human IgG1, V domains shown, H1H: human IgG1 Fc; divalent) VH: QVQLVQSGGGVVQPGGSLRLSCAASGFTFDDYAMHWVRQAPGKGLEWVSLISGDGGSTYYADSVKGRFTISRDNSKNSLYLQMNSLRTEDTALYYCAKDDSSSSWYYYYYGMDVWGRGTTVTVSS VL: DIQMTQSPSSLSASVGDRVTITCRASQRISSYLNWYQQKPGKAPKVLISVASSLQSGVPSRFSGSGSGTDFTLTISSLQPEDFASYYCQQSYNTPLTFGGGTKVEIKR
3 | 0.279 | 120 | 9.61e-05 | 345000 | 11.3 | 73 | 0.000159 | 14100 |  |  |  |  |  |  |  |  |  | H1H7211P (monovalent 1-arm) (antibody, human IgG1, V domains shown, Monovalent 1-arm: second Fab removed, only the Fc portion (CH2-CH3) expressed; human IgG1 Fc; tied by numerical identifier; also called H1H7211B) VH: EVQLVESGGGLVHPGRSLRLSCTASGFKFADYTMHWVRQAPGKGLEWVSDISWNSGSKGYADSVKGRFTISRDNDKNSLYLQMNSLRGEDTALYYCAKDGSGYGRFHFYAIDVWGQGTTVTVSS VL: not shown
4 | 2.12 | 32 | 0.000365 | 173000 | 25.3 | 32 | 0.000362 | 14300 |  |  |  |  |  |  |  |  |  | H1H7204P (monovalent 1-arm) (antibody, human IgG1, V domains shown, Monovalent 1-arm: second Fab removed, only the Fc portion (CH2-CH3) expressed; human IgG1 Fc; tied by numerical identifier; also called H1H7204B) VH: EVQLVESRGALVQPGRSLRLSCAASGFAFNDYTMHWVRQAPGKGLEWVSDISWNSNSKDYADSVKGRFTISRDNAKNSLYLQMNSLRAEDTALYYCVKDGSGYGKFSLYALDVWGQGTTVTVSS VL: not shown
5 |  |  |  |  |  |  |  |  |  |  |  |  |  |  |  |  | no binding | H1xH7221G5 (monovalent 1-arm) (antibody, V domains shown, Monovalent 1-arm: second Fab removed, only the Fc portion (CH2-CH3) expressed; prefix H1xH not explained) VH: EVQLVESGGGLVQPGRSLRLSCAASGFTFDDYSMHWVRQAPGKGLEWVSGISWNSGSIGYADSVKGRFTISRDNAKNSLYLQMNSLRAEDTALYYCAKDGSGYGKFYYYGMDVWGQGTTVTVSS VL: not shown
6 | 10 | 8 | 0.00149 | 149000 | 220 | 7 | 0.00177 | 8030 |  |  |  |  |  |  |  |  |  | H1H7232P (monovalent 1-arm) (antibody, human IgG1, V domains shown, Monovalent 1-arm: second Fab removed, only the Fc portion (CH2-CH3) expressed; human IgG1 Fc; tied by numerical identifier; also called H1H7232B) VH: EVQLVESGGGLVHPGRSLRLSCAASGFTFDDYTMHWVRQAPGKGLEWVSDISWNSGSRGYADSVKGRFTISRDNAENSLYLQMNSLRAEDTALYYCAKDKSGYGHYYYYAMDVWGQGTTVTVSS VL: not shown
7 |  |  |  |  |  |  |  |  |  |  |  |  |  |  |  |  | no binding | H1xH7221G3 (monovalent 1-arm) (antibody, V domains shown, Monovalent 1-arm: second Fab removed, only the Fc portion (CH2-CH3) expressed; prefix H1xH not explained) VH: EVQLVESGGGLVQPGRSLRLSCAASGFTFDDYSMHWVRQAPGKGLEWVSGISWNSGSIGYADSVKGRFTISRDNAKNSLYLQMNSLRAEDTALYYCAKDGSGYGYFYYYGMDVWGQGTTVTVSS VL: not shown
8 | 1.75 | 48 | 0.000239 | 136000 | 27.5 | 40 | 0.000292 | 10700 |  |  |  |  |  |  |  |  |  | H1H7221P (monovalent 1-arm) (antibody, human IgG1, V domains shown, Monovalent 1-arm: second Fab removed, only the Fc portion (CH2-CH3) expressed; human IgG1 Fc; tied by numerical identifier; also called H1H7221B) VH: EVQLVESGGGLVQPGRSLRLSCVASGFTFDDYSMHWVRQAPGKGLEWVSGISWNSGSKDYADSVKGRFTISRDNAKNSLYLQMNSLRAEDTALYYCAKYGSGYGKFYHYGLDVWGQGTTVTVSS VL: not shown
9 | 1.53 | 40 | 0.000286 | 187000 | 19.2 | 38 | 0.000307 | 16000 |  |  |  |  |  |  |  |  |  | H1H7223P (monovalent 1-arm) (antibody, human IgG1, V domains shown, Monovalent 1-arm: second Fab removed, only the Fc portion (CH2-CH3) expressed; human IgG1 Fc; tied by numerical identifier; also called H1H7223B) VH: QVQLVESGGGLVQPGRSLRLSCAASGFTFADYTMHWVRQAPGKGLEWVSDISWNSGSMGYADSVKGRFTISRDNAKKSLYLQMNSLRTEDTALYYCAKDGSGYGKYFFYAMDVWGQGTTVTVSS VL: not shown
